In the assay the target is HEG1–KRIT1 interaction (EGFP‐KRIT1 FERM domain binding to HEG1 cytoplasmic tail on beads) (Homo sapiens, UniProt O00522). Briefly: Flow cytometry bead assay for the HEG1–KRIT1 FERM domain interaction. The note with it: bead assay, compared with wild‐type KRIT1.
HEG1–KRIT1 interaction (EGFP‐KRIT1 FERM domain binding to HEG1 cytoplasmic tail on beads), sequence (O00522 417-736): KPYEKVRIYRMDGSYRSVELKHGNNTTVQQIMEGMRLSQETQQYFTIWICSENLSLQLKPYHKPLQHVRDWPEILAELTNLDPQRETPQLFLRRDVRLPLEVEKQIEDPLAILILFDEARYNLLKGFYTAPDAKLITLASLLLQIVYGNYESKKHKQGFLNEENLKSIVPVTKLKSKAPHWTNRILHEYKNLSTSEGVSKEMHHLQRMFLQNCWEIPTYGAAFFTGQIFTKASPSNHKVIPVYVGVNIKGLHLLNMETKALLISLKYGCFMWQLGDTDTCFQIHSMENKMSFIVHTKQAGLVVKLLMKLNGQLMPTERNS

B1: KRIT1 (L717,721A) mutant: EGFP‐KRIT1 FERM domain mutant with reduced affinity for HEG1 (protein)
chain: KPYEKVRIYRMDGSYRSVELKHGNNTTVQQIMEGMRLSQETQQYFTIWICSENLSLQLKPYHKPLQHVRDWPEILAELTNLDPQRETPQLFLRRDVRLPLEVEKQIEDPLAILILFDEARYNLLKGFYTAPDAKLITLASLLLQIVYGNYESKKHKQGFLNEENLKSIVPVTKLKSKAPHWTNRILHEYKNLSTSEGVSKEMHHLQRMFLQNCWEIPTYGAAFFTGQIFTKASPSNHKVIPVYVGVNIKGLHLLNMETKALLISLKYGCFMWQLGDTDTCFQIHSMENKMSFIVHTKQAGAVVKALMKLNGQLMPTERNS
modifications: left off: His6, N-terminal, state not stated | EGFP, N-terminal, kept
Consider B1, for which the “binding to HEG1” value is “dramatic reduction in binding”.

The values are drawn from paper PMC8103725 (FASEB BioAdvances, 2021).
